Experimental findings from patent US8357833B2, “Corn plants and seed enhanced for asparagine and protein” (priority 2007, dated 2013) are described below.

Data set [1] addresses T1, Zea mays asparagine synthetase Zm AsnS4 (SEQ ID NO: 51, encoded by SEQ ID NO: 50) (Zea mays, UniProt B5U8J9).
T1 construct: 588 aa
T1 sequence (B5U8J9 1-588): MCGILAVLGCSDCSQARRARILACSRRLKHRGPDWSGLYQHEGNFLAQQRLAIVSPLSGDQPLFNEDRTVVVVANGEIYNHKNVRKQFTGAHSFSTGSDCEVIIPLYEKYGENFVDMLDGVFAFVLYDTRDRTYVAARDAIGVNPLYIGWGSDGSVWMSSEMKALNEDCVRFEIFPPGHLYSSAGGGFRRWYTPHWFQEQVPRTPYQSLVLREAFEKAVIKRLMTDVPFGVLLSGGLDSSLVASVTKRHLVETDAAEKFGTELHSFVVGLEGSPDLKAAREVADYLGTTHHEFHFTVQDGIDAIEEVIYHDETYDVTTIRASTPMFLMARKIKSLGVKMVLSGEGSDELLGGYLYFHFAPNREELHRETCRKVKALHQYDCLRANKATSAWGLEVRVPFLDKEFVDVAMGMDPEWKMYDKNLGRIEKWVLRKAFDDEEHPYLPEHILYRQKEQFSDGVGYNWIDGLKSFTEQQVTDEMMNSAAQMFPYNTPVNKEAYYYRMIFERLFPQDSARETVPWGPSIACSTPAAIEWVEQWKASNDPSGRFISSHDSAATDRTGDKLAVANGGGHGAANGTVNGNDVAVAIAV
The experiment in a line: Kinetics of recombinant his-tagged, refolded maize asparagine synthetase AsnS4 (substrate titration, asparagine by HPLC). It is filed as biochemical. The protocol:
The effect of expression of asparagine synthetase genes on asparagine synthetase activity was measured in transgenic events of pMON79706 and pMON92870. Frozen, ground leaf tissue was aliquoted (200-400 mg) into wells from a precooled 96 deep-well plate. Protein was extracted in Buffer A (100 mM Hepes-OH, pH 8.0, 0.1 mM EDTA, 10 mM MgCl2, 2 mM aspartate, 0.5 mM DTT, 67 mM mercaptoethanol, 20% (v/v) glycerol, 0.1 mM ATP, 1% (v/v) P9599 (Sigma Company), 25 mM KCl). A small amount of sand was added to each well. Buffer A was then added to the leaf tissue in the wells at a ratio of 4:1 (buffer:tissue). The plates were then agitated in a paint shaker for 2 min. to mix the sample and then centrifuged at 5000×g for 10 minutes. The supernatant (100-200 μL) was desalted in a 96-well macro spin plate (SNS S025L, The Nest Group Inc., Southboro, Mass.) equilibrated in buffer A. The supernatant was then either assayed immediately or frozen in liquid nitrogen and maintained at −80° C. until used. To assay asparagine synthetase activity, desalted protein extracts (10-50 μL) were added to wells containing 100 μL assay solution (100 mM Hepes, pH 8.0, 10 mM MgCl2, 2 mM aspartate, 5 mM DTT, 10 mM ATP, 1 mM amino(oxy)acetic acid (aspartate amino transferase inhibitor), 1 mM aspartic semialdehyde (asparaginase inhibitor). To start the reaction, glutamine (final concentration of 2 mM for standard assay) was added to the solution, which was then mixed. The assay mixture was then incubated for 1 to 2 hours. The reaction was then stopped by the addition of an equal volume of 20% (w/v) trichloroacetic acid. The mixture was then filtered to remove precipitate and asparagine was measured by HPLC. Sample size was increased from 0.5 μL to 2.5 μL for HPLC, excitation wavelength was reduced from 340 nm to 235 nm, and fluorimeter gain was increased from 10 to 13. […]

Data set [2] deals with T2, Zea mays asparagine synthetase Zm AsnS2 (SEQ ID NO: 4, encoded by SEQ ID NO: 3) (Zea mays, UniProt B5U8J7).
T2 construct: 606 aa
T2 sequence (B5U8J7 1-606): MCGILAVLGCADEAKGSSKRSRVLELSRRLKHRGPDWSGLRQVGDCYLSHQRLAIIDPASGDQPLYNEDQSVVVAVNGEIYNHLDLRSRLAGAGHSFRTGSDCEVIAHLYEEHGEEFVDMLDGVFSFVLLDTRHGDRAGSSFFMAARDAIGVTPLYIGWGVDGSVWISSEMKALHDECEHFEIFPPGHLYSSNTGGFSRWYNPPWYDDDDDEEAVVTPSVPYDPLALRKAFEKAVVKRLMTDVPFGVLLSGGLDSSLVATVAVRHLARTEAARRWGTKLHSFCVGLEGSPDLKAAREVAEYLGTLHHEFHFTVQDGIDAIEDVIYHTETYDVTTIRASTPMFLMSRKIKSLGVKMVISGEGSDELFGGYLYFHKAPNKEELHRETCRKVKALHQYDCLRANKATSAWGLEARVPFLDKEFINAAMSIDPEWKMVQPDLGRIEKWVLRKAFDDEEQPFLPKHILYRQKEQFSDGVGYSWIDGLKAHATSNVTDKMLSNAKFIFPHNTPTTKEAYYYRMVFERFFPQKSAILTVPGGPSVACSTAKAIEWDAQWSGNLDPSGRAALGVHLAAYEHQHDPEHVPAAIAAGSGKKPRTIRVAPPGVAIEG
The experiment in a line: Kinetics of recombinant his-tagged, refolded maize asparagine synthetase AsnS2 (substrate titration, asparagine by HPLC). It is filed as biochemical. The conditions noted are these: AsnS2 versus the other maize AsnS enzymes. The protocol: The effect of expression of asparagine synthetase genes on asparagine synthetase activity was measured in transgenic events of pMON79706 and pMON92870. Frozen, ground leaf tissue was aliquoted (200-400 mg) into wells from a precooled 96 deep-well plate. Protein was extracted in Buffer A (100 mM Hepes-OH, pH 8.0, 0.1 mM EDTA, 10 mM MgCl2, 2 mM aspartate, 0.5 mM DTT, 67 mM mercaptoethanol, 20% (v/v) glycerol, 0.1 mM ATP, 1% (v/v) P9599 (Sigma Company), 25 mM KCl). A small amount of sand was added to each well. Buffer A was then added to the leaf tissue in the wells at a ratio of 4:1 (buffer:tissue). The plates were then agitated in a paint shaker for 2 min. to mix the sample and then centrifuged at 5000×g for 10 minutes. The supernatant (100-200 μL) was desalted in a 96-well macro spin plate (SNS S025L, The Nest Group Inc., Southboro, Mass.) equilibrated in buffer A. The supernatant was then either assayed immediately or frozen in liquid nitrogen and maintained at −80° C. until used. […] The mixture was then filtered to remove precipitate and asparagine was measured by HPLC. […]

Substrate in data set [3]: NC(=O)CC[C@H](N)C(=O)O
The data set is described as above. The data set is classed as biochemical, Zea mays. The conditions noted are these: other: Zm AsnS2, 100 mM Hepes, pH 8.0, 10 mM MgCl2.

Substrate in data set [4]: N[C@@H](CC(=O)O)C(=O)O
The description is as above. It is filed as biochemical, Zea mays. As to conditions: other: Zm AsnS2, 100 mM Hepes, pH 8.0, 10 mM MgCl2.

Substrate in data set [5]: Nc1ncnc2c1ncn2[C@@H]1O[C@H](COP(=O)(O)OP(=O)(O)OP(=O)(O)O)[C@@H](O)[C@H]1O
Described as above. It is filed as biochemical, Zea mays. As to conditions: other: Zm AsnS2, 100 mM Hepes, pH 8.0, 10 mM MgCl2.

Substrate in data set [6]: NC(=O)CC[C@H](N)C(=O)O
The experiment in a line: Kinetics of recombinant his-tagged, refolded maize asparagine synthetase AsnS3 (substrate titration, asparagine by HPLC). The data set is classed as biochemical, Zea mays. As to conditions: other: Zm AsnS3, 100 mM Hepes, pH 8.0, 10 mM MgCl2.

Substrate in data set [7]: N[C@@H](CC(=O)O)C(=O)O
Described as above. The data set is classed as biochemical, Zea mays. As to conditions: other: Zm AsnS3, 100 mM Hepes, pH 8.0, 10 mM MgCl2.

Substrate in data set [8]: Nc1ncnc2c1ncn2[C@@H]1O[C@H](COP(=O)(O)OP(=O)(O)OP(=O)(O)O)[C@@H](O)[C@H]1O
Described as above. It is filed as biochemical, Zea mays. As to conditions: other: Zm AsnS3, 100 mM Hepes, pH 8.0, 10 mM MgCl2.

Substrate in data set [9]: NC(=O)CC[C@H](N)C(=O)O
The experiment in a line: Kinetics of recombinant his-tagged, refolded maize asparagine synthetase AsnS1 (substrate titration, asparagine by HPLC). It is filed as biochemical, Zea mays. The conditions noted are these: other: Zm AsnS1, 100 mM Hepes, pH 8.0, 10 mM MgCl2.

Substrate in data set [10]: N[C@@H](CC(=O)O)C(=O)O
The description is as above. It is filed as biochemical, Zea mays. The conditions noted are these: other: Zm AsnS1, 100 mM Hepes, pH 8.0, 10 mM MgCl2.

Substrate in data set [11]: Nc1ncnc2c1ncn2[C@@H]1O[C@H](COP(=O)(O)OP(=O)(O)OP(=O)(O)O)[C@@H](O)[C@H]1O
The description is as above. The data set is classed as biochemical, Zea mays. As to conditions: other: Zm AsnS1, 100 mM Hepes, pH 8.0, 10 mM MgCl2.

Where two headings read alike, the source gives them in different places.

On to `Nc1ncnc2c1ncn2[C@@H]1O[C@H](COP(=O)(O)OP(=O)(O)OP(=O)(O)O)[C@@H](O)[C@H]1O` [ATP], for which the Km in data set [1] (read-out: Km(ATP), 100 mM Hepes, pH 8.0, 10 mM MgCl2) worked out at 128 µM.
For the molecule `NC(=O)CC[C@H](N)C(=O)O` [Gln, glutamine], the Km in [1] (100 mM Hepes, pH 8.0, 10 mM MgCl2, read-out: Km(Gln)) stood at 233 µM. The “Km (Gln) for AsnS2 compared with the other enzymes” value in data set [2] is on record as “several fold lower than the other enzymes”.

B1: Zea mays asparagine synthetase Zm AsnS2 (SEQ ID NO: 4, encoded by SEQ ID NO: 3) (Zea mays) (protein)
chain: T2 sequence (B5U8J7 1-606)
notes: 606 aa
Take B1: the Km in data set [3] is 110 µM; in data set [4] it was 910 µM; in data set [5], 125 µM.

B2: Zea mays asparagine synthetase Zm AsnS3 (SEQ ID NO: 6, encoded by SEQ ID NO: 5) (Zea mays) (protein)
chain: MCGILAVLGCSDWSQAKRARILACSRRLKHRGPDWSGLYQHEGNFLAQQRLAVVSPLSGDQPLFNEDRTVVVVANGEIYNHKNVRKQFTGTHNFSTGSDCEVIMPLYEKYGENFVDMLDGVFAFVLYDTRDRTYVAARDAIGVNPLYIGWGSDGSVWIASEMKALNEDCVRFEIFPPGHLYSSAGGGFRRWYTPHWFQEQVPRTPYQPLVLREAFEKAVIKRLMTDVPFGVLLSGGLDSSLVASVTKRHLVETEAAEKFGTELHSFVVGLEGSPDLKAAREVADYLGTIHHEFHFTVQDGIDAIEEVIYHDETYDVTTIRASTPMFLMARKIKSLGVKMVLSGEGSDELLGGYLYFHFAPNKEEFHRETCRKVKALHQYDCLRANKATSAWGLEVRVPFLDKEFINVAMGMDPEWKMYDKNLGRIEKWVMRKAFDDDEHPYLPKHILYRQKEQFSDGVGYNWIDGLKSFTEQQVTDEMMNNAAQMFPYNTPVNKEAYYYRMIFERLFPQDSARETVPWGPSIACSTPAAIEWVEQWKASNDPSGRFISSHDSAATDHTGGKPAVANGGGHGAANGTVNGKDVAVAIAV
notes: 588 aa
As to B2, the Michaelis constant (Km) was found to be 423 µM in data set [6], 1200 µM in data set [7] and 97 µM in [8].

B3: Zea mays asparagine synthetase Zm AsnS1 (SEQ ID NO: 2, encoded by SEQ ID NO: 1) (Zea mays) (protein)
chain: MICDKCSLVRSFFVGRPRDITSLYKKAGSCRTMCGILAVLGVAEVSLAKRSRIIELSRRLRHRGPDWSGLHCHEDCYLAHQRLAIIDPTSGDQPLYNEDKTVVVTVNGEIYNHEELKAKLKTHEFQTGSDCEVIAHLYEEYGEEFVDMLDGMFSFVLLDTRDKSFIAARDAIGICPLYMGWGLDGSVWFSSEMKALSDDCERFITFPPGHLYSSKTGGLRRWYNPPWFSETVPSTPYNALFLREMFEKAVIKRLMTDVPFGVLLSGGLDSSLVASVASRHLNETKVDRQWGNKLHTFCIGLKGSPDLKAAREVADYLSTVHHEFHFTVQEGIDALEEVIYHIETYDVTTIRASTPMFLMSRKIKSLGVKMVISGEGSDEIFGGYLYFHKAPNKKEFHEETCRKIKALHLYDCLRANKATSAWGVEARVPFLDKSFISVAMDIDPEWKMIKRDLGRIEKWVIRNAFDDDERPYLPKHILYRQKEQFSDGVGYSWIDGLKDHASQHVSDSMMMNAGFVYPENTPTTKEGYYYRMIFEKFFPKPAARSTVPGGPSVACSTAKAVEWDASWSKNLDPSGRAALGVHDAAYEDTAGKTPASADPVSDKGLRPAIGESLGTPVASATAV
For B3, the Km is 543 µM in data set [9], 980 µM in data set [10] and 110 µM in data set [11].

By Km is commonly meant the concentration of substrate that gives half-maximal velocity.
